Like-named read-outs stand apart in the source and are kept apart here.
Key:
[1] = target: T1, N-Terminal FITC labeled ubiquitin (UniProt P0CG47 1-76, FITC on the N-terminus); test: binding of a fluorescent ligand to cells
[2] = target: T1, N-Terminal FITC labeled ubiquitin; test: binding of a fluorescent ligand to cells; remark: listed apart in the source

Kd [1]: 154 nM
Kd [2]: 119 nM
B1: CXC chemokine receptor (CXCR) 4 on BV-2 cells (receptor, mouse (endogenous in BV-2), UniProt P70658 1-359, looked up)
chain: MEPISVSIYTSDNYSEEVGSGDYDSNKEPCFRDENVHFNRIFLPTIYFIIFLTGIVGNGLVILVMGYQKKLRSMTDKYRLHLSVADLLFVITLPFWAVDAMADWYFGKFLCKAVHIIYTVNLYSSVLILAFISLDRYLAIVHATNSQRPRKLLAEKAVYVGVWIPALLLTIPDFIFADVSQGDISQGDDRYICDRLYPDSLWMVVFQFQHIMVGLILPGIVILSCYCIIISKLSHSKGHQKRKALKTTVILILAFFACWLPYYVGISIDSFILLGVIKQGCDFESIVHKWISITEALAFFHCCLNPILYAFLGAKFKSSAQHALNSMSRGSSLKILSKGKRGGHSSVSTESESSSFHSS

From article PMC4113718 (Biochemistry, 2013)
